One series has as its system anaerobic E. coli. Also on record: method as in PMID 11751864. The following applies: cited from earlier work.
Series [1] concerns flavoHb heme (Fe^2+ / Fe^3+). The following applies: cited from earlier work.
On the set-up of series [2]: method as in PMID 7821669. The following applies: cited from earlier work.
For another series, the system named is E. coli flavoHb-NOD. Type of series: biochemical, Escherichia coli. The following applies: for Ki: NO competitive with O2; for K3: NO passage through gate, apparent Km(NO); for Kii(NO): NO uncompetitive inhibition; for K2: O2 displacement of LeuE11; for k'NOD app: calculated from Vmax/K3; for k'NOD: calculated from Vmax/K4; for K4: reaction of NO with Fe^3+O2^−; for KT: trigger step equilibrium constant. From the text:
We have formulated a steady-state velocity equation for the catalytic cycle with the activating trigger step (KT) (Equation 1).(1) v= Vmax(a) where a=([NO]^2[O2]^2/K1K2K3KTK4)/(1+([O2]/K1)+([O2]^2/K1K2)+(([O2]^2[NO])/K1K2K3)+(([O2]^2[NO])/K1K2K3KT)+(([O2]^2[NO]^2)/K1K2K3KTK4))
(2) v= Vmax(a)(b) where b=[NO]/(K3+([NO](1+((K2/[O2])(1+([NO]/Ki(NO)))))))
In addition, we have introduced a factor and equilibrium constant Ka(O2) for rare situations in which O2 causes an additional NO-independent activation of catalysis possibly by occupying unique binding sites or cavities (Equation 5).
NOD activity was measured amperometrically in 100 mM phosphate buffer, pH 7.0, containing 0.3 mM EDTA, 100 μg/ml bovine serum albumin (BSA) (Fraction V), 100 μM NADH, 0.1 μM FAD with NO, O2, and N2 mixtures added as described ([4], [72]). NADH oxidase activity was followed spectrophotometrically at 340 nm in a 1.0-ml cuvette containing 90 mM Tris chloride buffer, pH 8.2, 100 μM NADH, 200 μM O2, 0.1 μM FAD, 100 μg/ml BSA, and 0.3 mM EDTA and incubated at 37 °C. Cytochrome b5 reductase activity was assayed at 37 °C by following the rate of absorbance increase at 555 nm in a 1.0-ml reaction buffered with 90 mM Tris chloride, pH 8.2, and containing 10 μM ferric cytochrome b5, 200 μM O2, 20 μM NADH, 0.1 μM FAD, 100 μg/ml BSA, and 0.3 mM EDTA. TMAO reductase activity was assayed by following the absorbance decrease at 340 nm in a 1.0-ml anaerobic reaction containing 12 U Aspergillus niger glucose oxidase, 5 mM glucose, 260 U catalase, 400 mM TMAO, 100 μM NADH, 0.1 μM FAD, 100 μg/ml BSA, and 0.3 mM EDTA in 90 mM Tris chloride pH 8.2 and incubated at 37 °C. Ngb reductase activity was assayed by following the absorbance increase at 424 nm in a 1.0-ml anaerobic reaction containing 12 U glucose oxidase, 5 mM glucose, 260 U catalase, 5 μM Ngb, 50 μM NADH, 0.1 μM FAD, 100 μg/ml BSA, and 0.3 mM EDTA in 90 mM Tris chloride buffer, pH 8.2, and incubated at 37 °C. Methyl viologen reductase activity was assayed by following the formation of the blue cation radical at 603 nm and by applying an extinction coefficient of 13,300 M^−1 cm^−1 in a 1.0-ml anaerobic reaction buffered with 10 mM potassium phosphate, pH 7.0, and containing 12 U glucose oxidase, 5 mM glucose, 260 U catalase, 100 μM NADH, 0.1 μM FAD, 100 μg/ml BSA, 0.3 mM EDTA, and 200 mM sodium chloride and incubated at 37 °C. NO reductase activity was assayed amperometrically at 37 °C in a 1.0-ml anaerobic reaction containing 2 μM NO, 100 μM NADH, 0.1 μM FAD, 12 U glucose oxidase, 5 mM glucose, 260 U catalase, 100 μg/ml BSA, and 0.3 mM EDTA buffered with 10 mM potassium phosphate pH 7.0. CO effects were tested at a final concentration of 50 μM as diluted from a 1 mM stock in water. All activities are reported relative to the heme content of flavoHb.
Rate constants were estimated from the model kinetic equation using Python programming with successive approximations to optimize fits with varying NO and O2 concentrations. Vmax, K1, K2, KT, and Kii(NO) values were treated as independent variables for a given flavoHb while allowing K3, K4, and Ki(NO) to vary over limited ranges with varying O2 concentration. Kii(NO) was estimated from NO inhibition at saturating O2 concentrations.

We go through one molecule from publication PMC7948479, “Allostery in the nitric oxide dioxygenase mechanism of flavohemoglobin” (The Journal of Biological Chemistry, 2020).

Like-named read-outs stand apart in the source and are kept apart here.

Usually Ki stands for a dissociation constant, usually derived from enzyme kinetics or from competition with a known ligand. A high value points to lower affinity.

B1: WT: wild-type E. coli flavohemoglobin (flavoHb), an NO dioxygenase (NOD) (protein, UniProt P24232 1-396, looked up)
Flavohemoprotein: MLDAQTIATVKATIPLLVETGPKLTAHFYDRMFTHNPELKEIFNMSNQRNGDQREALFNAIAAYASNIENLPALLPAVEKIAQKHTSFQIKPEQYNIVGEHLLATLDEMFSPGQEVLDAWGKAYGVLANVFINREAEIYNENASKAGGWEGTRDFRIVAKTPRSALITSFELEPVDGGAVAEYRPGQYLGVWLKPEGFPHQEIRQYSLTRKPDGKGYRIAVKREEGGQVSNWLHNHANVGDVVKLVAPAGDFFMAVADDTPVTLISAGVGQTPMLAMLDTLAKAGHTAQVNWFHAAENGDVHAFADEVKELGQSLPRFTAHTWYRQPSEADRAKGQFDSEGLMDLSKLEGAFSDPTMQFYLCGPVGFMQFTAKQLVDLGVKQENIHYECFGPHKVL
Consider B1, for which the NO metabolic activity result in the series with anaerobic E. coli is listed as “insignificant NO metabolic activity”. The k in series [1] (Fe^2+ NO dissociation) is 0.0002 (4) s^−1. Further, the k entry in series [1] (Fe^3+ NO dissociation) is listed as “∼4000 (4) s^−1”. Also, in series [2], the “FAD/FADH2 potential (E^0)” value is < −0.15 V and the “nominal heme mid-point potential” value is −0.125 V. For the same molecule, in the series with E. coli flavoHb-NOD (20 °C), the Vmax is given as 160 NO heme^−1 s^−1, the Ki was 300 to 1000 nM, the K3 was 0.1–0.4 Micromolar and the “Kii(NO)” value is on record as 10 (10) Micromolar. Also, in the series on E. coli flavoHb-NOD (20 °C), the K2 came out at 20 Micromolar, the “k'NOD app” value is listed as 0.4–1.6 10^9 M^−1 s^−1, the “k'NOD” value was 0.5–2.7 10^9 M^−1 s^−1 and the K4 is reported as 0.06–0.3 Micromolar. In addition, the KT with E. coli flavoHb-NOD (20 °C) is on record as 0.1 (0.1). For the same molecule, in the series with E. coli flavoHb-NOD (37 °C), the Vmax was 580 NO heme^−1 s^−1, the inhibitory constant (Ki) is 700 to 1200 nM, the K3 was found to be 0.25 Micromolar and the “Kii(NO)” value is given as 10 (10) Micromolar. Besides, in the series with E. coli flavoHb-NOD (37 °C), the K2 turned out to be 120 Micromolar, the “k'NOD app” value is reported as 2.3 10^9 M^−1 s^−1, the “k'NOD” value is given as 9.7–19 10^9 M^−1 s^−1 and the K4 is recorded as 0.03–0.06 Micromolar. Moreover, in the series with E. coli flavoHb-NOD (37 °C), the KT is reported as 0.1 (0.1). Besides, the “overall activation energy (Ea)” value in the series on E. coli flavoHb-NOD (Arrhenius equation for Vmax at 37 and 20 °C) is ~13.7 kcal/mol.
